Data set [1] in a line: Evaluation of cardiovascular effects in the conscious telemetered mouse (subcutaneous administration). It is filed as in vivo, Male Crl: CD1(1CR) mice. The conditions noted are these: 800 μg CNP-38 (eq)/kg sc. On the procedure: Male Crl: CD1(1CR) mice (age range 8-13 weeks and body weight range 27.3-35.6 g at start of dosing) were surgically implanted with a TA11PA-C10 telemetry transmitter (Data Sciences International (DSI)) in the carotid artery. The body of the transmitter was placed subcutaneously in the lateral flank of the mouse. The mice were dosed subcutaneously in a latin square crossover design with at least 72 hours between dosing occasions. […] At least four mice were included at each dose level. Blood pressure (systolic (SAP), diastolic (DAP) and mean (MAP) and heart rate (HR, derived from blood pressure), were recorded using a digital data capture system linked with a DSITM Ponemah data acquisition and analysis system. The capture system allowed recording of the cardiovascular parameters whilst the mice were in individual cages. On the day of each test session the animals were weighed and a predose recording was performed for at least 60 min prior to dosing. Each mouse was returned to the home cage and the cardiovascular parameters were recorded for approximately 48 hours postdose. Blood pressure and HR were reported at the following time points: −30, −20, −10, 5, 15 and 30 min postdose and 1, 2, 6, 12, 18, 24, 30, 36, 42 and 48 hours postdose. Each time point was presented as the average value of five minute's recording prior to the time point. […]

Data set [2] addresses T1, recombinant human NEP (Homo sapiens, UniProt P08473).
T1 construct: purchased Enzo Life Sciences GmbH, Lörrach, Germany
As to the kind of experiment: Digest of CNP variants by Neutral Endopeptidase in vitro. The data set is classed as in vitro ADME. As to conditions: 100 μg CNP equivalents/mL, pH 7.4, 37° C., up to 4 days, normalized to mean CNP-34 or CNP-38 half life. From the text:
Samples were taken at different time intervals. […] The resulting reaction products were assigned using HPLC-MS.

Data set [3] can be described thus: Pharmacokinetic profile of conjugate 11i after subcutaneous single-dose administration to cynomolgus monkeys. As to conditions: single s.c. 40 μg CNP-38 eq/kg. It is filed as in vivo. The procedure: As internal standard deuterated CNP-38 conjugate was used.
After 3 hours incubation at 37° C. […] 10 μL were injected into the UHPLC-MS system.

T1 sequence (P08473 whole entry): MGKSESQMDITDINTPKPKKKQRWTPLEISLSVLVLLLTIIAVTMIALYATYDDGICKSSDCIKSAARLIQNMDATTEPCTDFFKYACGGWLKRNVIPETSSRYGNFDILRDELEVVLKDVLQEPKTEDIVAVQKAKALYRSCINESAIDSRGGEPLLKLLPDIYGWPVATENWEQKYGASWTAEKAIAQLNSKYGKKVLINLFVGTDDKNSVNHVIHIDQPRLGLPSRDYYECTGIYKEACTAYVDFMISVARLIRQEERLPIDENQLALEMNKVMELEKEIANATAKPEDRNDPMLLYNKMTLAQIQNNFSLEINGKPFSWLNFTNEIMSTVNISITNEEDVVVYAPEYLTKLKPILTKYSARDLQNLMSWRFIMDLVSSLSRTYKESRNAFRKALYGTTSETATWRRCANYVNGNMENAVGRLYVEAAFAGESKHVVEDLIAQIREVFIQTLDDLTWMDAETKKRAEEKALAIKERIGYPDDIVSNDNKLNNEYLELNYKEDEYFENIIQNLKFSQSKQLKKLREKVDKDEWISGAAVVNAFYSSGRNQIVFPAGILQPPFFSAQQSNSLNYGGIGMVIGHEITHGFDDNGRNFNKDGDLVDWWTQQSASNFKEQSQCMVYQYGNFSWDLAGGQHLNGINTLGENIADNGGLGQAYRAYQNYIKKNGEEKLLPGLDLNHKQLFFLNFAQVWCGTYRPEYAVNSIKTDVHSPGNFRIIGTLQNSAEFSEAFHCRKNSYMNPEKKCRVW

For `CC[C@H](C)[C@@H]1NC(=O)[C@H](CCCNC(=N)N)NC(=O)[C@H](CC(=O)O)NC(=O)[C@H](CC(C)C)NC(=O)[C@H](CCCCN)NC(=O)[C@H](CC(C)C)NC(=O)CNC(=O)[C@H](Cc2ccccc2)NC(=O)[C@@H](NC(=O)CNC(=O)[C@H](CCCCN)NC(=O)[C@H](CO)NC(=O)[C@H](CC(C)C)NC(=O)CNC(=O)[C@H](CCCCN)NC(=O)[C@H](CCCCN)NC(=O)[C@H](CC(N)=O)NC(=O)[C@H](C)NC(=O)CNC(=O)[C@H](CCCCN)NC(=O)[C@H](Cc2ccc(O)cc2)NC(=O)[C@H](CCCCN)NC(=O)[C@H](CCCNC(=N)N)NC(=O)[C@H](C)NC(=O)[C@H](CC(N)=O)NC(=O)[C@@H]2CCCN2C(=O)[C@H](Cc2c[nH]cn2)NC(=O)[C@H](CCC(=O)O)NC(=O)[C@H](CCC(N)=O)NC(=O)[C@@H](N)CC(C)C)CSSC[C@@H](C(=O)O)NC(=O)CNC(=O)[C@H](CC(C)C)NC(=O)CNC(=O)[C@H](CO)NC(=O)[C@H](CCSC)NC(=O)[C@H](CO)NC(=O)CNC1=O` [CNP-38, reference compound], the “effect on HR” value in data set [1] is “not impacted”. The “effect on MAP / blood pressure” value in data set [1] (5, 15 and 30 min post dose) is recorded as “significant decrease in MAP”.

Turning to “Permanent Lys16 CNP-34 PEG 5 kDa Conjugate [Conjugate 17e]”, the half life norm. in data set [2] stood at 54.23 h.

Regarding “Reversible Lys26 CNP-38 PEG4×10 kDa Conjugate [Conjugate 11i]”, the tolerability entry in data set [3] was “well tolerated”.

On to “Permanent Lys26 CNP-38 PEG 5 kDa Conjugate [Conjugate 19e]”, for which the half life norm. in data set [2] is recorded as 62.76 h.

As for “Permanent Lys26 CNP-38 PEG4×10 kDa Conjugate [Conjugate 12g]”, the half life norm. result in data set [2] is reported as “Almost no proteolysis”.

Regarding “Permanent N-Terminal CNP-34 PEG 5 kDa Conjugate [Conjugate 14e]”, in data set [2], the half life norm. entry is reported as “Almost no proteolysis”.

Consider “Permanent N-Terminal CNP-38 PEG 5 kDa Conjugate [Conjugate 15e]”, for which the half life norm. entry in data set [2] is given as “Almost no proteolysis”.

With “Permanent Lys22 CNP-34 PEG 5 kDa Conjugate [Conjugate 18e]”, the half life norm. in data set [2] is listed as 38.87 h.

These data come from US20250090639A1, “CONTROLLED-RELEASE CNP AGONISTS WITH LOW INITIAL NPR-B ACTIVITY” (priority 2016, published 2025).
